Assay: yeast display, Sf9 membrane polyspecificity reagent, FACS + sequencing; frameworks hold sequencing errors
In short: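 Genes from sorted yeast were amplified by colony PCR, read by MiSeq 2 × 250 sequencing and filtered on CDR length. These cells carried a synthetic nanobody library in Saccharomyces cerevisiae BJ5465 and were sorted by FACS into low and high (top ~1%) gates on anti-HA and streptavidin fluorescence. Polyreactivity is labelled according to the gate of origin.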

Sequence | polyreactivity (PSR sort gate)
QVQLVESGGGIVQAGGSLRLSWAASGRNFLDYTMGWYRQAHGKERELVAAIRTSAGSTYYADSVKGRFTISRDNAKNTVYLQMNILKPEYTAVYYCAAEYYVQYYYRYDYWGQGTQVTVSS | low polyreactivity
QVQLVESGGGIVQAGGSLSLSCAASGRSFRYYAMGWYRQAPGKEREMVAAIDTSSGSTYYADSVKGRFTISRDNAMNTVFLQMNSLKPEDTAVYYCNATWWIPLIYDYWGQGTHVTVSS | low polyreactivity
QVQLVESGGGIVQAGRSLRLRCAASGSTFTPYGMGWYRQAPGKESELVAAITVSGGRTYYADSVKGRFTISRDNANNTVSLVMNSLKPEDTAVYYCAAVYLRADGDYDYWGQGTQVNVSS | low polyreactivity
QVQLVESGGGIVQAGVSLRLSCAASGINIDYYAMGWYRQAPGKERELVAAITSGGSTSYADSVKGRFTISRDNAKNTVYLQMNSLKAEDTAVYYCNTEPSGYESGYWGQGTQVTVSS | low polyreactivity
QVQLVESGGGIVQEGGSLRLSCAASGSTFDQNGMGGYRQAPGKERELVATISTSAGTYYADSVKGRFTISRDNAKNTVYLQMNSLKPEDTAVYYCNADLGGQYKEFDYWGQGTQVTVSS | low polyreactivity
QVQLVESGGGIVQSGGSLRLSCAASGRTFSSYAMGRYRQAPGKEMALVAAINRGGGSTYYADSVKGRFTISRDNAKNTVYLQMNSLKPEDTAVYYCNARSKLTYEYDYWGQGTQVTVSS | high polyreactivity
QVQLVESGGGKLQAGGSLRLSCAASGIILYVYAMGWYRQAPGKARELVAAITWSGGSTYYADSEKGRFTISRDNAKNTVYLQMNSLKPEDTAVYYCAVDVHTSADASLPQEYDYWGPGTQVTVSS | low polyreactivity
QVQLVESGGGKVQAGGSLRLSCAASGRIFYLNAMGWYRQAPGKEREFVAAITRNGGNTYYADSVKGRFTISRDNAKNTVYLQMNSLKPEDTAVYYCNAKYWPFSRWYYYWGQGTQVTVSS | high polyreactivity
QVQLVESGGGLDPAGGSLRLSCAASGITFSYYAMGWYRQAPGKERELVAAISSSGSTYYADSVKGRFTISRDNAKNTDYLQMNSLKPEDTAVYYCAAEIRYYEYDYWGQGTQVTVSS | low polyreactivity
QVQLVESGGGLDQAAGSLRLSCAASGSNFQWYTMGWYRQAPGKERELVAAITWSGASTYYADSVKGRFTISRDNAKNTVYLQMNSLKPEDTAVYYCAADWRRGTGFYYWGQGTQVTVSS | high polyreactivity
QVQLVESGGGLDQAGCSLRISCAASGRIFIQNTMGWYRQAPGKERELVAAITRSGGRTYYADSVKGRFTFSRDNAKNTVYLQMNSLKPEDTAVYYCNRRPATRAYLYDYWGQGTQVTVSS | high polyreactivity
QVQLVESGGGLDQAGGCLRLSSAASGIIFYYNRMGCDRQAPGKERDLVADISGDGSTNYADSVKGRFTISRDNAKNTLYLQINSLKPDDTAFYYCNSDDIFRPRDDLYDYWGQGTQVTVSS | low polyreactivity
QVQLVESGGGLDQAGGRLRLSCAASGFTIRDNAMGWYRQAPGKEMELVAAISRSGDSTNYADSVKGRFTISRDNAKNTVYLQMNSLKPEDTAVYYSAAKRRYTTYDYWGQGTLVTVSS | high polyreactivity
QVQLVESGGGLDQAGGSLRLICAASGRIFVYYTMVWYRQAPGKERELVAAITGSGGSTYYADSVKGRFTISRDNAKNTVYLQMNSLKPEDTAVYYCAVYDSYRSRTHRYPATFAYGSWGQGNQVTVSS | high polyreactivity
QVQLVESGGGLDQAGGSLRLSCAASASIFQRSAKCWYRQAPGKETELVAAITNGGGSTYYADSVKGRFTISRDNAMNTVYLQMNSLKPEDTAVYYCAKDGHSYYPWEYDYWVQGTQVTVSS | low polyreactivity
QVQLVESGGGLDQAGGSLRLSCAASGFIFVRNAMGWYRQAPGKERELVAAITGRGGRTYYADSVKGRFTISRDNAKNTVYLQMNSLKPEDTAVYYCAKDSPDDHFGYWGQGTQVTVSS | high polyreactivity

Sequence | polyreactivity (PSR sort gate)
QVQLVESGGGLDQAGGSLRLSCAASGFTFARYTMGWYRQAPGKEREFVAAISWSGGRTYYADSVKGRFTISRDNAKNTVYLQMNSLKPEDTAVYYCAARRKTTKYDYWGQGTQVTVSS | high polyreactivity
QVQLVESGGGLDQAGGSLRLSCAASGFTSGYNVLGWYRQAPGTARELVAAISWRGTSTYYADSVKGRFTISRDNAKNTVYLQMNSLKPEDTAVYYCAARQRWYWRGYDYWGQGTQVTVSS | high polyreactivity
QVQLVESGGGLDQAGGSLRLSCAASGGIFYHNAMGWYRQAPGKERELVAVISWSRTRTYYADSVKGRFTISRDNAKNTVYLQMNILTPDDTAVYYCAASPDPYWVRMDYWGQGTQVNVSS | high polyreactivity
QVQLVESGGGLDQAGGSLRLSCAASGGTFSNYAMGWYRQATGKERELVAAISESGGSTYYADSVKGRFTISRDNAKNTVYLQMNSLKPEDTAVYYCAVGTRFYVPRRFDYWGQGSQVTVSS | high polyreactivity
QVQLVESGGGLDQAGGSLRLSCAASGIIFRNYAMGWYRQAPGKERELVATITGDGGSTYYADSVKGRFTISRDNAKNTVYLQMNSLKPEDTAVYYCNADVSKRGWTTYWYGYGYYYWGQGTQVTVSS | low polyreactivity
QVQLVESGGGLDQAGGSLRLSCAASGIIFVKYTMGWYRQAPGTERELVAAISRSGGSTYYADSVKGRFTISRDNAKNTVYLQMNSLKPEDTAVYYCNAVSRKVYPGPMDYWGQGTQVTVSS | high polyreactivity
QVQLVESGGGLDQAGGSLRLSCAASGIIFWYNARGWYRQAPGKERELVAAINYGGSTNYADSVKGRFTISRDNAKNTVYLQMNSLKQEDTAVDYCNADRSVIHRGYIWQPGRNDYWGQGTQVNVSS | low polyreactivity
QVQLVESGGGLDQAGGSLRLSCAASGITFDYYAIGWYRQAPGKERELVAAISRAGSTNYADSVKGRFTISRDNAKNTVYLQMNSLKPEDTAVYYCNNGYHSWSRLSQFGWSYDYWGQGTQVTVSS | high polyreactivity
QVQLVESGGGLDQAGGSLRLSCAASGITFGFNAMGWYRQAPGIERELVAAITYRGGSTYYADSVKGRFTISGDNAKNTVYLQMNSLKPEDTAVYYCAADIGRHTDNYDPRYDYWGQGTQVTVSS | low polyreactivity
QVQLVESGGGLDQAGGSLRLSCAASGITFTSYAMGWYRQAPGTEREFVAAISWTDTSTYYADSVKGRFTISRDNAKNTVYLQMNSLKPEDTAVYYCADEYEVGYFGYEYWGQGTQVTVSS | high polyreactivity
QVQLVESGGGLDQAGGSLRLSCAASGITIIGYAMGWYRQAHGKERELVASITSGANTNYADSVKGRFTISRANAKNTVYFQMNSLKPEATAVYYCAAPEHGTYANILGEPLDYWGQGSQVTVSS | low polyreactivity
QVQLVESGGGLDQAGGSLRLSCAASGLIFKLYDMGWSRQAPGKERELVATISRGTSTYYADSVKGRFTISRDNAKNTVDLQMNSLKPEDTAVYYCNARLDYGRAFPLFKYISGMYYWGQGTQVTVSS | low polyreactivity
QVQLVESGGGLDQAGGSLRLSCAASGLIFQVYAMGWYRQAPGKERELVAAISRSGGRTYNADSVKGRFTISRDNAKNTVYLQMNSLKPEDTAVYYCAAESYVDYPRWYDYWGQGTQVTVSS | high polyreactivity
QVQLVESGGGLDQAGGSLRLSCAASGNIFPAYAMGWYRQAPGKERELVAAISKSGGRTYYADSVKGRFTISRDNAKKTVYLVMNSLKPEDSAVYFCAARDRRYQWTSWYDYWGQGTQVTVSS | high polyreactivity
QVQLVESGGGLDQAGGSLRLSCAASGNIFSDSTMGWYRQAPGKEIELVAAISGDGGTTYYADSVKGRFTISRDNAKHTVYLQMNSLKPEDTAVYFCAGDGYYDAYDQFFIVYYEYDYWGQGTQVTVSS | low polyreactivity

From the nanobody polyreactivity screen of Harvey et al. (2022)
